Consider 24 variants from the supplement of paper PMC7125110.

B1: glmS ribozyme (parent)
chain: AUAAAAGCGCCAGAACUACAGAAAUGUAGUUGACGAGGAGGAGGUUUAUCGAAUUUUCGGCGGAUGCCUCCAAA

Conditions in all cases: with glucosamine-6-phosphate
Data set [1] covers variants of B1. In words: self-cleavage kobs at 40 uM GlcN6P; higher = faster cleavage; RNA array. In a few lines:
(§1)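 The measurements used barcoded ribozyme variants on sequenced MiSeq chips, transcribed in situ by E. coli RNA polymerase and tracked at 37 °C with a hybridised Cy3 probe. Glucosamine-6-phosphate, 40 μM to 10 mM in HEPES/KCl/Mg(OAc)2 buffer, was flowed in while tiles were imaged over ~14 h. Baseline-normalised signals, also normalised to non-cleaving reference variants, gave per-tile medians that were fit to one- or two-exponential decays for kobs. kcat and KM resulted from weighted Michaelis–Menten fits across concentrations.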

In data set [2] the parent is B1. Kind of data set: self-cleavage kobs at 10000 uM GlcN6P; higher = faster cleavage; RNA array. In a few lines: as §1
The variants in data set [3] derive from B1. Kind of data set: self-cleavage kobs at 640 uM GlcN6P; higher = faster cleavage; RNA array. In a few lines: as §1
In data set [4] the parent is B1. Kind of data set: self-cleavage kobs at 2500 uM GlcN6P; higher = faster cleavage; RNA array. In a few lines:
as §1

The variants in data set [5] derive from B1. Kind of data set: self-cleavage kobs at 160 uM GlcN6P; higher = faster cleavage; RNA array. In a few lines:
as §1

± gives the standard error. Variants at the floor of the assay were thinned out.

As for G37C G41U U46C, in the data set with glucosamine-6-phosphate [1], the “self-cleavage kobs at 40 uM GlcN6P” value is < 1e-05 s⁻¹. The “self-cleavage kobs at 10000 uM GlcN6P” value in the data set with glucosamine-6-phosphate [2] was < 1e-05 s⁻¹.
A12G A53U C58U: the “self-cleavage kobs at 40 uM GlcN6P” value with glucosamine-6-phosphate [1] is < 1e-05 s⁻¹.
On to U54G U56G G63A C67U, for which, in the data set with glucosamine-6-phosphate [1], the “self-cleavage kobs at 40 uM GlcN6P” value is < 1e-05 s⁻¹. Also, the “self-cleavage kobs at 10000 uM GlcN6P” value in the data set with glucosamine-6-phosphate [2] was < 1e-05 s⁻¹.
With A15C C61U U69G, in the data set with glucosamine-6-phosphate [1], the “self-cleavage kobs at 40 uM GlcN6P” value was < 1e-05 s⁻¹. Further, the “self-cleavage kobs at 10000 uM GlcN6P” value in the data set with glucosamine-6-phosphate [2] was < 1e-05 s⁻¹.
For the variant C11G U31G A53C, in the data set with glucosamine-6-phosphate [1], the “self-cleavage kobs at 40 uM GlcN6P” value was < 1e-05 s⁻¹.
In the case of A14U A15G A53G, the “self-cleavage kobs at 40 uM GlcN6P” value with glucosamine-6-phosphate [1] was determined as 0.000126 ± 2.3e-05 s⁻¹. The “self-cleavage kobs at 10000 uM GlcN6P” value in the data set with glucosamine-6-phosphate [2] stood at 0.0102 ± 0.0019 s⁻¹.
Take G9A C50A U56C C67A: the “self-cleavage kobs at 40 uM GlcN6P” value with glucosamine-6-phosphate [1] was < 1e-05 s⁻¹. The “self-cleavage kobs at 640 uM GlcN6P” value with glucosamine-6-phosphate [3] was < 1e-05 s⁻¹. Moreover, the “self-cleavage kobs at 2500 uM GlcN6P” value in the data set with glucosamine-6-phosphate [4] is < 1e-05 s⁻¹.
For the variant G13C G44U, in the data set with glucosamine-6-phosphate [1], the “self-cleavage kobs at 40 uM GlcN6P” value is < 1e-05 s⁻¹. Also, the “self-cleavage kobs at 160 uM GlcN6P” value with glucosamine-6-phosphate [5] was < 1e-05 s⁻¹. The “self-cleavage kobs at 640 uM GlcN6P” value with glucosamine-6-phosphate [3] is < 1e-05 s⁻¹. The “self-cleavage kobs at 2500 uM GlcN6P” value with glucosamine-6-phosphate [4] is < 1e-05 s⁻¹. The “self-cleavage kobs at 10000 uM GlcN6P” value with glucosamine-6-phosphate [2] is < 1e-05 s⁻¹.
For the variant G51A U65C, in the data set with glucosamine-6-phosphate [1], the “self-cleavage kobs at 40 uM GlcN6P” value was < 1e-05 s⁻¹. Besides, the “self-cleavage kobs at 10000 uM GlcN6P” value with glucosamine-6-phosphate [2] was < 1e-05 s⁻¹.
As to A15C A39G G40A G59C, the “self-cleavage kobs at 40 uM GlcN6P” value with glucosamine-6-phosphate [1] was < 1e-05 s⁻¹.
For U30G U56A G66A, the “self-cleavage kobs at 40 uM GlcN6P” value with glucosamine-6-phosphate [1] came to 5.14e-05 ± 1.7e-05 s⁻¹. The “self-cleavage kobs at 10000 uM GlcN6P” value with glucosamine-6-phosphate [2] stood at 0.00252 ± 0.00061 s⁻¹.
Regarding U30C U31C, in the data set with glucosamine-6-phosphate [1], the “self-cleavage kobs at 40 uM GlcN6P” value worked out at 3.3e-05 ± 1.1e-05 s⁻¹. Also, in the data set with glucosamine-6-phosphate [5], the “self-cleavage kobs at 160 uM GlcN6P” value is 0.000413 ± 7.4e-05 s⁻¹. Also, the “self-cleavage kobs at 640 uM GlcN6P” value with glucosamine-6-phosphate [3] was 0.000788 ± 0.00016 s⁻¹. The “self-cleavage kobs at 2500 uM GlcN6P” value with glucosamine-6-phosphate [4] was 0.00125 ± 0.00016 s⁻¹. Further, the “self-cleavage kobs at 10000 uM GlcN6P” value with glucosamine-6-phosphate [2] was 0.00328 ± 0.00041 s⁻¹.
For A39C A42G A64C C67G, the “self-cleavage kobs at 40 uM GlcN6P” value in the data set with glucosamine-6-phosphate [1] is < 1e-05 s⁻¹. The “self-cleavage kobs at 10000 uM GlcN6P” value with glucosamine-6-phosphate [2] was < 1e-05 s⁻¹.
Regarding C8U A42G, the “self-cleavage kobs at 40 uM GlcN6P” value in the data set with glucosamine-6-phosphate [1] is < 1e-05 s⁻¹. Further, in the data set with glucosamine-6-phosphate [5], the “self-cleavage kobs at 160 uM GlcN6P” value is < 1e-05 s⁻¹. Also, the “self-cleavage kobs at 10000 uM GlcN6P” value with glucosamine-6-phosphate [2] is < 1e-05 s⁻¹.
G13A A15U A33U G37U U46C U49A: in the data set with glucosamine-6-phosphate [1], the “self-cleavage kobs at 40 uM GlcN6P” value is < 1e-05 s⁻¹. For the same variant, the “self-cleavage kobs at 2500 uM GlcN6P” value with glucosamine-6-phosphate [4] is < 1e-05 s⁻¹.
Turning to G41C G59A, in the data set with glucosamine-6-phosphate [1], the “self-cleavage kobs at 40 uM GlcN6P” value is < 1e-05 s⁻¹. Moreover, the “self-cleavage kobs at 640 uM GlcN6P” value with glucosamine-6-phosphate [3] was < 1e-05 s⁻¹.
Take C10U G60U: in the data set with glucosamine-6-phosphate [1], the “self-cleavage kobs at 40 uM GlcN6P” value is < 1e-05 s⁻¹. The “self-cleavage kobs at 160 uM GlcN6P” value in the data set with glucosamine-6-phosphate [5] was < 1e-05 s⁻¹. Also, the “self-cleavage kobs at 640 uM GlcN6P” value with glucosamine-6-phosphate [3] is < 1e-05 s⁻¹. Also, in the data set with glucosamine-6-phosphate [2], the “self-cleavage kobs at 10000 uM GlcN6P” value was < 1e-05 s⁻¹.
For U46G C61G, the “self-cleavage kobs at 40 uM GlcN6P” value in the data set with glucosamine-6-phosphate [1] was < 1e-05 s⁻¹. For the same variant, the “self-cleavage kobs at 160 uM GlcN6P” value in the data set with glucosamine-6-phosphate [5] was < 1e-05 s⁻¹. Besides, the “self-cleavage kobs at 640 uM GlcN6P” value with glucosamine-6-phosphate [3] is < 1e-05 s⁻¹. The “self-cleavage kobs at 10000 uM GlcN6P” value with glucosamine-6-phosphate [2] is < 1e-05 s⁻¹.
On to A15G A53G, for which, in the data set with glucosamine-6-phosphate [1], the “self-cleavage kobs at 40 uM GlcN6P” value was 0.00127 ± 0.00016 s⁻¹. Moreover, the “self-cleavage kobs at 160 uM GlcN6P” value with glucosamine-6-phosphate [5] was 0.00183 ± 0.00039 s⁻¹. Also, the “self-cleavage kobs at 640 uM GlcN6P” value with glucosamine-6-phosphate [3] stood at 0.0109 ± 0.0017 s⁻¹. Also, in the data set with glucosamine-6-phosphate [4], the “self-cleavage kobs at 2500 uM GlcN6P” value stood at 0.022 ± 0.0053 s⁻¹. Besides, the “self-cleavage kobs at 10000 uM GlcN6P” value with glucosamine-6-phosphate [2] stood at 0.0345 ± 0.008 s⁻¹.
With A6U A48G G51C G59C, in the data set with glucosamine-6-phosphate [1], the “self-cleavage kobs at 40 uM GlcN6P” value is < 1e-05 s⁻¹. For the same variant, in the data set with glucosamine-6-phosphate [2], the “self-cleavage kobs at 10000 uM GlcN6P” value was < 1e-05 s⁻¹.
As to A12C U57A G62A, the “self-cleavage kobs at 40 uM GlcN6P” value with glucosamine-6-phosphate [1] is < 1e-05 s⁻¹.
As to U30A G63U, in the data set with glucosamine-6-phosphate [1], the “self-cleavage kobs at 40 uM GlcN6P” value was < 1e-05 s⁻¹. In the data set with glucosamine-6-phosphate [5], the “self-cleavage kobs at 160 uM GlcN6P” value is < 1e-05 s⁻¹. Further, the “self-cleavage kobs at 10000 uM GlcN6P” value with glucosamine-6-phosphate [2] is < 1e-05 s⁻¹.
As for C10G G32U A36C G40U G63U, the “self-cleavage kobs at 40 uM GlcN6P” value with glucosamine-6-phosphate [1] is < 1e-05 s⁻¹. Moreover, in the data set with glucosamine-6-phosphate [4], the “self-cleavage kobs at 2500 uM GlcN6P” value is < 1e-05 s⁻¹. In addition, the “self-cleavage kobs at 10000 uM GlcN6P” value with glucosamine-6-phosphate [2] was < 1e-05 s⁻¹.
Turning to A42C G51U, in the data set with glucosamine-6-phosphate [1], the “self-cleavage kobs at 40 uM GlcN6P” value is < 1e-05 s⁻¹. Also, the “self-cleavage kobs at 160 uM GlcN6P” value with glucosamine-6-phosphate [5] was < 1e-05 s⁻¹. The “self-cleavage kobs at 640 uM GlcN6P” value with glucosamine-6-phosphate [3] is < 1e-05 s⁻¹. Also, the “self-cleavage kobs at 10000 uM GlcN6P” value in the data set with glucosamine-6-phosphate [2] is < 1e-05 s⁻¹.
